Source: article PMC8997467

How the values were obtained:
Conditions in all cases: glycan lost; control: wild type
[1] = cell surface biotinylation, streptavidin pulldown, HeLa
[2] = anti-FLAG surface immunofluorescence, non-permeabilised HeLa
[3] = co-immunostaining with ER marker HA-PDIA4

Substance | localisation_or_trafficking, percent_of_wt [1] | localisation_or_trafficking, percent_of_wt [2] | localisation_or_trafficking [3]
Neuronal growth regulator 1 (NEGR1): 1MT (N307Q) | no change |  | 
Neuronal growth regulator 1 (NEGR1): N73Q |  | no change | 
Neuronal growth regulator 1 (NEGR1): N73Q/N155Q | abolishes | abolishes | changes
Neuronal growth regulator 1 (NEGR1): N155Q |  | no change | 
Neuronal growth regulator 1 (NEGR1): N275Q |  | no change | 
Neuronal growth regulator 1 (NEGR1): N286Q |  | no change | 
Neuronal growth regulator 1 (NEGR1): N294Q |  | no change | 
Neuronal growth regulator 1 (NEGR1): N307Q |  | no change | 
